Data: US20140087995A1 (published 2014)
Blank lines part the entries; values can stand above or below the binder they belong to. Numbered stars: 1 amine (or outer) side, 2 acyl side, 3 side chain; on linkers, the order of the positions; unused ones are H or OH. Bridge positions count the residues as written; N and C are the ends. Side chains are listed from the residue outwards. Ends that are not written are not given here. * marks the point of attachment. C20 diacid = O=C(O)CCCCCCCCCCCCCCCCCCC(=O)*; γGlu = O=C(O)[C@H](CCC(=O)[*:2])N[*:1]; AEEA = NCCOCCOCC(=O)O

Molecular target: T1, human calcitonin receptor (human, UniProt P30988 25-474)
T1 sequence (looked up): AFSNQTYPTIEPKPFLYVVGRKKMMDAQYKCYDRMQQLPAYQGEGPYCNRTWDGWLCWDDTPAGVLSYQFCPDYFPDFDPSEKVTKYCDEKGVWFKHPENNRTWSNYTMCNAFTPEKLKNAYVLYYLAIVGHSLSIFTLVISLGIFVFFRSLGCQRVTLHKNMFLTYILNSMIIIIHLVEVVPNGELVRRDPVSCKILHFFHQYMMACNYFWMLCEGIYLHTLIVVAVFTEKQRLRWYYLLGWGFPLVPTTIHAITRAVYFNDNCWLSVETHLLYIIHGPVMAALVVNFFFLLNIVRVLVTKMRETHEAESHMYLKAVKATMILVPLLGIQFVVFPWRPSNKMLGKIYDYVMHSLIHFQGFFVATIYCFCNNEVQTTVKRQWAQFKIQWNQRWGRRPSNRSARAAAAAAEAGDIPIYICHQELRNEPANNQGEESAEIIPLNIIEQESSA
Assay: cell-based or functional assay

B1: N^ε1-[2-[2-[2-[[2-[2-[2-[[(4S)-4-carboxy-4-(19-carboxynonadecanoylamino)butanoyl]amino]ethoxy]ethoxy]acetyl]amino]ethoxy]ethoxy]acetyl]-[Arg17,Pro21,Pro27,Pro31 … (peptide)
peptide: K([AEEA-AEEA-γGlu-C20 diacid])CNTATCATQRLANFLRHSSPNFGAIPSSTPVGSNTY-NH2
modifications: disulfide 2-7; N-terminus assumed
SMILES: CC[C@H](C)[C@H](NC(=O)[C@H](C)NC(=O)CNC(=O)[C@H](Cc1ccccc1)NC(=O)[C@H](CC(N)=O)NC(=O)[C@@H]1CCCN1C(=O)[C@H](CO)NC(=O)[C@H](CO)NC(=O)[C@H](Cc1c[nH]cn1)NC(=O)[C@H](CCCNC(=N)N)NC(=O)[C@H](CC(C)C)NC(=O)[C@H](Cc1ccccc1)NC(=O)[C@H](CC(N)=O)NC(=O)[C@H](C)NC(=O)[C@H](CC(C)C)NC(=O)[C@H](CCCNC(=N)N)NC(=O)[C@H](CCC(N)=O)NC(=O)[C@@H](NC(=O)[C@H](C)NC(=O)[C@@H]1CSSC[C@H](NC(=O)[C@@H](N)CCCCNC(=O)COCCOCCNC(=O)COCCOCCNC(=O)CC[C@H](NC(=O)CCCCCCCCCCCCCCCCCCC(=O)O)C(=O)O)C(=O)N[C@@H](CC(N)=O)C(=O)N[C@@H]([C@@H](C)O)C(=O)N[C@@H](C)C(=O)N[C@@H]([C@@H](C)O)C(=O)N1)[C@@H](C)O)C(=O)N1CCC[C@H]1C(=O)N[C@@H](CO)C(=O)N[C@@H](CO)C(=O)N[C@H](C(=O)N1CCC[C@H]1C(=O)N[C@H](C(=O)NCC(=O)N[C@@H](CO)C(=O)N[C@@H](CC(N)=O)C(=O)N[C@H](C(=O)N[C@@H](Cc1ccc(O)cc1)C(N)=O)[C@@H](C)O)C(C)C)[C@@H](C)O
notes: also called compound 96
hCTR funct. EC50: 3.8 nM

B2: N^ε1-[2-[2-[2-[[2-[2-[2-[[(4S)-4-carboxy-4-(19-carboxynonadecanoylamino)butanoyl]amino]ethoxy]ethoxy]acetyl]amino]ethoxy]ethoxy]acetyl]-[Arg17,Pro21,Pro27,Pro34 … (peptide)
peptide: K([AEEA-AEEA-γGlu-C20 diacid])CNTATCATQRLANFLRHSSPNFGAIPSSTNVGPNTY-NH2
modifications: disulfide 2-7; N-terminus assumed
SMILES: CC[C@H](C)[C@H](NC(=O)[C@H](C)NC(=O)CNC(=O)[C@H](Cc1ccccc1)NC(=O)[C@H](CC(N)=O)NC(=O)[C@@H]1CCCN1C(=O)[C@H](CO)NC(=O)[C@H](CO)NC(=O)[C@H](Cc1c[nH]cn1)NC(=O)[C@H](CCCNC(=N)N)NC(=O)[C@H](CC(C)C)NC(=O)[C@H](Cc1ccccc1)NC(=O)[C@H](CC(N)=O)NC(=O)[C@H](C)NC(=O)[C@H](CC(C)C)NC(=O)[C@H](CCCNC(=N)N)NC(=O)[C@H](CCC(N)=O)NC(=O)[C@@H](NC(=O)[C@H](C)NC(=O)[C@@H]1CSSC[C@H](NC(=O)[C@@H](N)CCCCNC(=O)COCCOCCNC(=O)COCCOCCNC(=O)CC[C@H](NC(=O)CCCCCCCCCCCCCCCCCCC(=O)O)C(=O)O)C(=O)N[C@@H](CC(N)=O)C(=O)N[C@@H]([C@@H](C)O)C(=O)N[C@@H](C)C(=O)N[C@@H]([C@@H](C)O)C(=O)N1)[C@@H](C)O)C(=O)N1CCC[C@H]1C(=O)N[C@@H](CO)C(=O)N[C@@H](CO)C(=O)N[C@H](C(=O)N[C@@H](CC(N)=O)C(=O)N[C@H](C(=O)NCC(=O)N1CCC[C@H]1C(=O)N[C@@H](CC(N)=O)C(=O)N[C@H](C(=O)N[C@@H](Cc1ccc(O)cc1)C(N)=O)[C@@H](C)O)C(C)C)[C@@H](C)O
notes: also called compound 98
hCTR funct. EC50: 1.63 nM

B3: N^ε1-[2-[2-[2-[[(4S)-4-carboxy-4-(19-carboxynonadecanoylamino)butanoyl]amino]ethoxy]ethoxy]acetyl]-[Ala14,Arg17,Pro21,Pro27,Pro31]-h-amylin (peptide)
peptide: K([AEEA-γGlu-C20 diacid])CNTATCATQRLAAFLRHSSPNFGAIPSSTPVGSNTY-NH2
modifications: disulfide 2-7; N-terminus assumed
SMILES: CC[C@H](C)[C@H](NC(=O)[C@H](C)NC(=O)CNC(=O)[C@H](Cc1ccccc1)NC(=O)[C@H](CC(N)=O)NC(=O)[C@@H]1CCCN1C(=O)[C@H](CO)NC(=O)[C@H](CO)NC(=O)[C@H](Cc1c[nH]cn1)NC(=O)[C@H](CCCNC(=N)N)NC(=O)[C@H](CC(C)C)NC(=O)[C@H](Cc1ccccc1)NC(=O)[C@H](C)NC(=O)[C@H](C)NC(=O)[C@H](CC(C)C)NC(=O)[C@H](CCCNC(=N)N)NC(=O)[C@H](CCC(N)=O)NC(=O)[C@@H](NC(=O)[C@H](C)NC(=O)[C@@H]1CSSC[C@H](NC(=O)[C@@H](N)CCCCNC(=O)COCCOCCNC(=O)CC[C@H](NC(=O)CCCCCCCCCCCCCCCCCCC(=O)O)C(=O)O)C(=O)N[C@@H](CC(N)=O)C(=O)N[C@@H]([C@@H](C)O)C(=O)N[C@@H](C)C(=O)N[C@@H]([C@@H](C)O)C(=O)N1)[C@@H](C)O)C(=O)N1CCC[C@H]1C(=O)N[C@@H](CO)C(=O)N[C@@H](CO)C(=O)N[C@H](C(=O)N1CCC[C@H]1C(=O)N[C@H](C(=O)NCC(=O)N[C@@H](CO)C(=O)N[C@@H](CC(N)=O)C(=O)N[C@H](C(=O)N[C@@H](Cc1ccc(O)cc1)C(N)=O)[C@@H](C)O)C(C)C)[C@@H](C)O
notes: also called compound 72
hCTR funct. EC50: 4.76 nM

The next lines start with the values.

hCTR funct. EC50: 22.9 nM
B4: N^ε1-[2-[2-[2-[[(4S)-4-carboxy-4-(19-carboxynonadecanoylamino)butanoyl]amino]ethoxy]ethoxy]acetyl]-[Arg14,Arg17,Pro21,Pro27,Pro31]-h-amylin (peptide)
peptide: K([AEEA-γGlu-C20 diacid])CNTATCATQRLARFLRHSSPNFGAIPSSTPVGSNTY-NH2
modifications: disulfide 2-7; N-terminus assumed
SMILES: CC[C@H](C)[C@H](NC(=O)[C@H](C)NC(=O)CNC(=O)[C@H](Cc1ccccc1)NC(=O)[C@H](CC(N)=O)NC(=O)[C@@H]1CCCN1C(=O)[C@H](CO)NC(=O)[C@H](CO)NC(=O)[C@H](Cc1c[nH]cn1)NC(=O)[C@H](CCCNC(=N)N)NC(=O)[C@H](CC(C)C)NC(=O)[C@H](Cc1ccccc1)NC(=O)[C@H](CCCNC(=N)N)NC(=O)[C@H](C)NC(=O)[C@H](CC(C)C)NC(=O)[C@H](CCCNC(=N)N)NC(=O)[C@H](CCC(N)=O)NC(=O)[C@@H](NC(=O)[C@H](C)NC(=O)[C@@H]1CSSC[C@H](NC(=O)[C@@H](N)CCCCNC(=O)COCCOCCNC(=O)CC[C@H](NC(=O)CCCCCCCCCCCCCCCCCCC(=O)O)C(=O)O)C(=O)N[C@@H](CC(N)=O)C(=O)N[C@@H]([C@@H](C)O)C(=O)N[C@@H](C)C(=O)N[C@@H]([C@@H](C)O)C(=O)N1)[C@@H](C)O)C(=O)N1CCC[C@H]1C(=O)N[C@@H](CO)C(=O)N[C@@H](CO)C(=O)N[C@H](C(=O)N1CCC[C@H]1C(=O)N[C@H](C(=O)NCC(=O)N[C@@H](CO)C(=O)N[C@@H](CC(N)=O)C(=O)N[C@H](C(=O)N[C@@H](Cc1ccc(O)cc1)C(N)=O)[C@@H](C)O)C(C)C)[C@@H](C)O
notes: also called compound 64

hCTR funct. EC50: 8.17 nM
B5: N^ε1-[2-[2-[2-[[(4S)-4-carboxy-4-(19-carboxynonadecanoylamino)butanoyl]amino]ethoxy]ethoxy]acetyl]-[Arg17,Pro21,Pro27,Arg34]-h-amylin (peptide)
peptide: K([AEEA-γGlu-C20 diacid])CNTATCATQRLANFLRHSSPNFGAIPSSTNVGRNTY-NH2
modifications: disulfide 2-7; N-terminus assumed
SMILES: CC[C@H](C)[C@H](NC(=O)[C@H](C)NC(=O)CNC(=O)[C@H](Cc1ccccc1)NC(=O)[C@H](CC(N)=O)NC(=O)[C@@H]1CCCN1C(=O)[C@H](CO)NC(=O)[C@H](CO)NC(=O)[C@H](Cc1c[nH]cn1)NC(=O)[C@H](CCCNC(=N)N)NC(=O)[C@H](CC(C)C)NC(=O)[C@H](Cc1ccccc1)NC(=O)[C@H](CC(N)=O)NC(=O)[C@H](C)NC(=O)[C@H](CC(C)C)NC(=O)[C@H](CCCNC(=N)N)NC(=O)[C@H](CCC(N)=O)NC(=O)[C@@H](NC(=O)[C@H](C)NC(=O)[C@@H]1CSSC[C@H](NC(=O)[C@@H](N)CCCCNC(=O)COCCOCCNC(=O)CC[C@H](NC(=O)CCCCCCCCCCCCCCCCCCC(=O)O)C(=O)O)C(=O)N[C@@H](CC(N)=O)C(=O)N[C@@H]([C@@H](C)O)C(=O)N[C@@H](C)C(=O)N[C@@H]([C@@H](C)O)C(=O)N1)[C@@H](C)O)C(=O)N1CCC[C@H]1C(=O)N[C@@H](CO)C(=O)N[C@@H](CO)C(=O)N[C@H](C(=O)N[C@@H](CC(N)=O)C(=O)N[C@H](C(=O)NCC(=O)N[C@@H](CCCNC(=N)N)C(=O)N[C@@H](CC(N)=O)C(=O)N[C@H](C(=O)N[C@@H](Cc1ccc(O)cc1)C(N)=O)[C@@H](C)O)C(C)C)[C@@H](C)O
notes: also called compound 78

hCTR funct. EC50: 12.7 nM
B6: N^ε1-[2-[2-[2-[[(4S)-4-carboxy-4-(19-carboxynonadecanoylamino)butanoyl]amino]ethoxy]ethoxy]acetyl]-[Arg14,Arg17,Pro21,Pro27]-h-amylin (peptide)
peptide: K([AEEA-γGlu-C20 diacid])CNTATCATQRLARFLRHSSPNFGAIPSSTNVGSNTY-NH2
modifications: disulfide 2-7; N-terminus assumed
SMILES: CC[C@H](C)[C@H](NC(=O)[C@H](C)NC(=O)CNC(=O)[C@H](Cc1ccccc1)NC(=O)[C@H](CC(N)=O)NC(=O)[C@@H]1CCCN1C(=O)[C@H](CO)NC(=O)[C@H](CO)NC(=O)[C@H](Cc1c[nH]cn1)NC(=O)[C@H](CCCNC(=N)N)NC(=O)[C@H](CC(C)C)NC(=O)[C@H](Cc1ccccc1)NC(=O)[C@H](CCCNC(=N)N)NC(=O)[C@H](C)NC(=O)[C@H](CC(C)C)NC(=O)[C@H](CCCNC(=N)N)NC(=O)[C@H](CCC(N)=O)NC(=O)[C@@H](NC(=O)[C@H](C)NC(=O)[C@@H]1CSSC[C@H](NC(=O)[C@@H](N)CCCCNC(=O)COCCOCCNC(=O)CC[C@H](NC(=O)CCCCCCCCCCCCCCCCCCC(=O)O)C(=O)O)C(=O)N[C@@H](CC(N)=O)C(=O)N[C@@H]([C@@H](C)O)C(=O)N[C@@H](C)C(=O)N[C@@H]([C@@H](C)O)C(=O)N1)[C@@H](C)O)C(=O)N1CCC[C@H]1C(=O)N[C@@H](CO)C(=O)N[C@@H](CO)C(=O)N[C@H](C(=O)N[C@@H](CC(N)=O)C(=O)N[C@H](C(=O)NCC(=O)N[C@@H](CO)C(=O)N[C@@H](CC(N)=O)C(=O)N[C@H](C(=O)N[C@@H](Cc1ccc(O)cc1)C(N)=O)[C@@H](C)O)C(C)C)[C@@H](C)O
notes: also called compound 82
